The source of these data is patent US20250188161A1.

Holding throughout (experiment): flow cytometry, HEK-293T cells co-transfected with mGarp and the HA-tagged TGF-β1 construct
In general terms: Flow cytometry measures light scatter and fluorescence of single cells or particles in a stream.

Experiment [1] has as its target HA-tagged mouse-human-mouse chimeric TGF-β1, mouse LAP residues 136-200 replaced by the corresponding human LAP segment, on HEK-293T cells co-transfected with GARP (mouse; human) (UniProt P04202).
Experiment [2] deals with HA-tagged mouse-human-mouse chimeric TGF-β1, mouse LAP residues 201-222 replaced by the corresponding human LAP segment, on HEK-293T cells co-transfected with GARP (mouse; human) (UniProt P04202).
Experiment [3] has as its target HA-tagged mouse-human-mouse chimeric TGF-β1, mouse LAP residues 223-278 replaced by the corresponding human LAP segment, on HEK-293T cells co-transfected with GARP (mouse; human) (UniProt P04202).
Experiment [4] has as its target HA-tagged mouse-human-mouse chimeric TGF-β1, mouse LAP residues 87-135 replaced by the corresponding human LAP segment, on HEK-293T cells co-transfected with GARP (mouse; human) (UniProt P04202).

B1: LMT-12 (14D7) (antibody, V domains shown)
VH: EVQLVESGGGLVQPGGSLRLSCAASGFTFSSYYMYWVRQAPGKGLEWVSGTSIGGGSTWYADSVKGRFTISRDNAKNTLYLQMNNLKSEDTAVYYCAKDLNSRSYKGMGDWGQGTQVTVSS
VL: QPALTQLSSMSGSPGQTVTITCTGSSSNIGGGYYLNWYQQLPGAAPKLVIYNANNRASGVPDRFSGSKSGNLASLTITGLQAEDEAVYFCGCYDSSLSSVVFGGGTHLTVL
For the molecule B1, the % binding relative to WT TGF-β1 (100 %) in experiment [1] amounted to 105%; in experiment [2], 3%; in experiment [3], 89%; in experiment [4] it was 99%.

B2: LMT-2 (6D12) (antibody, V domains shown)
VH: EVQLVESGGGLVQPGGSLRLSCAASGFTFSNYGVHWVRQAPGKGLEWVSHISAAGISRYYADAVKGRFTMSRDNGKNTLYLQMNGLKSEDTAVYYCAKDRIRSSYEYDSWGQGTQVTVSS
VL: LPVLTQLSSMSGSPGQTVTITCTGSSSNIGGGYYLSWYQQLPGTAPKLLIYNANNRASGVPNRFSGSKSGNLASLTITGLQAEDEADYYCGCYDSSLSTGYVFGGGTKLTVL
On to B2, for which the % binding relative to WT TGF-β1 (100 %) in experiment [1] was 155%; in experiment [2] it was 2%; in experiment [3] it was 115%; in experiment [4], 157%.

B3: LMT-10 (20G4) (antibody, V domains shown)
VH: QVQLVESGGGLVQPGGSLTLSCAASGFTFSNYYMTWVRQAPGKGLEWVSSIYSTGSHTYYADSVKGRFTISRDNAKDTLYLQMNDLKSEDTAVYYCAKNIYTYYTAHYAGMDYWGKGTLVTVSS
VL: QSALTQPSTVSVSLGQMARITCQGGSLGSYDAHWYQQKPGQAPVLVIHDDNSRPSGIPERFSGSRSGGTATLTISGAQADDEGVYFCHSYDSSANAPVFGGGTELTVL
Regarding B3, the % binding relative to WT TGF-β1 (100 %) was found to be 126% in experiment [2], 99% in experiment [3] and 158% in experiment [4].

B4: LHT-18 (14E7) (antibody, V domains shown)
VH: QVQLVESGGGLVQPGGSLRLSCAASGFTFSHYWMYWVRQAPGKGLEWVSAINTGGGITYYTDSVKGRFTVSRDNAKNTLYLQMNSLKSEDTAVYYCAKSRYGVVITTTYFGGVDYWGKGTLVTVSS
VL: SSALTQPSAVSVSLGQTARITCQGGNFGSYYASWYQQKPGQAPVQVIYGNSNRPSGIPERFSGSSSGDTATLTISGAQAEDEADYYCLSYESSGYAVFGGGTHLTVL
B4: in experiment [2], the % binding relative to WT TGF-β1 (100 %) amounted to 63%.

B5: LHT-22 (15A2) (antibody, V domains shown)
VH: ELQLVESGGGLVQPGGSLRLSCAASGFTFDDYTMNWVRQAPGKGLEWVSAIRWNGVTTYYAESMKGRFTVSRDNGNNTLYLQMNSLKAEDTAVYYCAKGGSIDLTYGMDYWGKGTLVTVSS
VL: QAVVTQEPSLSVSPGGTVTITCGLSSGSVTRNNYPDWYQQTPGQAPRLLLYNTVARHSGVPSRFSGSISGNKAALTITGAQPEDEAGYYCALYMYTGSNNGRVFGGGTLLTVL
In experiment [2], B5 displayed a % binding relative to WT TGF-β1 (100 %) of 89%.

B6: LMT-9 (20G3) (antibody, V domains shown)
VH: LQLVESGGGLVQPGGSLRLSCAASGFTFSRSGMAWVRQAPGKGLEWVSAITPGGTATYYANSVKGRVTMSRDNAKNTLYLQMNSLKSEDTAVYYCAKGLVSSGLNGMDYWGKGTLVTVSS
VL: QSVLTQLSSMSGSPGQTVTITCTGSSSNIGGGYYLSWYQQLPGTAPKLLIYNTNNRASGVPNRFSGSKTGSLASLTITGLQAEDEADYYCGCYDDSLNTYVFGGGTKLTVL
For the molecule B6, the % binding relative to WT TGF-β1 (100 %) in experiment [1] came to 108%; in experiment [2], 2%; in experiment [3], 126%; in experiment [4] it was 164%.

B7: LHT-15 (13E7) (antibody, V domains shown)
VH: EVQLVESGGDLVQPGGSLRLSCAASGFTFSSYWMDWVRQAPGKGLEWVSRITNSGGTAFYTDSVEGRFTISRDNAKNTLYLQMNSLKSEDTAVYYCLRYITRAQLMGAWDYWGQGTQVTVSS
VL: ATMLTQSPGSLSVVPGESASISCKASQSLVHTDGKTYLSWLLQKPGQRPQLLIYQVSNRASGVPDRFTGSGSGTDFTLKISGVKAEDAGVYYCAQSTYYPYDFGSGTRLEIR
Molecule B7 showed a % binding relative to WT TGF-β1 (100 %) in experiment [4] of 101%.
